tested on: Escherichia coli TOP10; assay: shrunken log2 fold change of peptide-encoding DNA abundance (4.5 h post-induction vs induction); higher = less antimicrobial activity (less host growth inhibition); details: time post-induction: 4.5 h; library: site-saturation at positions 5, 18, 19, 20
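Also: peptides expressed intracellularly from a pBAD plasmid library in pooled LB shake-flask culture, induced with 0.3% L-arabinose, DNA abundance read by NGS, three biological replicates, DESeq2 with apeglm shrinkage.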

Row | Sequence | shrunken log2 fold change
1 | RRIRNRPPRLPRPRPRPGGCPRP | 0.203
2 | RRIRYRPPRLPRPRPRPEKFPRP | -0.0136
3 | RRIRQRPPRLPRPRPRPNSTPRP | -0.642
4 | RRIRHRPPRLPRPRPRPNRYPRP | -0.398
5 | RRIRPRPPRLPRPRPRPNPYPRP | -0.465
6 | RRIRKRPPRLPRPRPRPLLHPRP | 0.108
7 | RRIRMRPPRLPRPRPRPGGGPRP | 1.67
8 | RRIRARPPRLPRPRPRPHRIPRP | -0.145
9 | RRIRARPPRLPRPRPRPVCTPRP | 0.434
10 | RRIRKRPPRLPRPRPRPDCFPRP | 0.315
11 | RRIRTRPPRLPRPRPRPAHSPRP | 0.0608
12 | RRIRPRPPRLPRPRPRPDEQPRP | 0.318
13 | RRIRERPPRLPRPRPRPNTPPRP | 0.0861
14 | RRIRDRPPRLPRPRPRPAFQPRP | 0.201
15 | RRIRARPPRLPRPRPRPGCEPRP | 1.1
16 | RRIRERPPRLPRPRPRPYHQPRP | -0.416
17 | RRIRHRPPRLPRPRPRPELLPRP | 0.06
18 | RRIRMRPPRLPRPRPRPLCCPRP | 0.104
19 | RRIRHRPPRLPRPRPRPEYQPRP | -0.3
20 | RRIRNRPPRLPRPRPRPAWVPRP | 0.147
21 | RRIRWRPPRLPRPRPRPLWIPRP | -0.115
22 | RRIRLRPPRLPRPRPRPHLTPRP | -0.241
23 | RRIRMRPPRLPRPRPRPMAMPRP | 0.0319

Row | Sequence | shrunken log2 fold change
24 | RRIRERPPRLPRPRPRPNSDPRP | -0.142
25 | RRIRPRPPRLPRPRPRPVMEPRP | -0.101
26 | RRIRARPPRLPRPRPRPKCWPRP | 0.622
27 | RRIRVRPPRLPRPRPRPEFVPRP | -0.262
28 | RRIRERPPRLPRPRPRPTWVPRP | 0.138
29 | RRIRTRPPRLPRPRPRPFKWPRP | -0.121
30 | RRIRFRPPRLPRPRPRPPTPPRP | 0.908
31 | RRIRRRPPRLPRPRPRPQNQPRP | 0.0537
32 | RRIRSRPPRLPRPRPRPFDLPRP | -0.419
33 | RRIRLRPPRLPRPRPRPQCIPRP | -0.0123
34 | RRIRGRPPRLPRPRPRPKPGPRP | 1.07
35 | RRIRTRPPRLPRPRPRPWLFPRP | 0.212
36 | RRIRWRPPRLPRPRPRPEHNPRP | 0.147
37 | RRIRARPPRLPRPRPRPFLLPRP | -0.223
38 | RRIRRRPPRLPRPRPRPWWMPRP | 0.386
39 | RRIRGRPPRLPRPRPRPVGEPRP | 1.23
40 | RRIRQRPPRLPRPRPRPVNYPRP | -0.00127
41 | RRIRPRPPRLPRPRPRPFYLPRP | -0.685
42 | RRIRWRPPRLPRPRPRPQYYPRP | -0.0952
43 | RRIRVRPPRLPRPRPRPWSHPRP | -0.125
44 | RRIRIRPPRLPRPRPRPTYPPRP | -0.592
45 | RRIRIRPPRLPRPRPRPKYVPRP | -0.134
46 | RRIRWRPPRLPRPRPRPQLQPRP | 0.229

Row | Sequence | shrunken log2 fold change
47 | RRIRLRPPRLPRPRPRPVMEPRP | 0.233
48 | RRIRNRPPRLPRPRPRPHARPRP | 0.187
49 | RRIRKRPPRLPRPRPRPYSMPRP | -0.39
50 | RRIRYRPPRLPRPRPRPYDRPRP | -0.039
51 | RRIRHRPPRLPRPRPRPAYWPRP | 2.61
52 | RRIRSRPPRLPRPRPRPQTIPRP | -0.502
53 | RRIRKRPPRLPRPRPRPPNQPRP | 0.17
54 | RRIRLRPPRLPRPRPRPRYWPRP | -0.0087
55 | RRIRVRPPRLPRPRPRPNGNPRP | -0.323
56 | RRIRWRPPRLPRPRPRPAYPPRP | 0.00826
57 | RRIRERPPRLPRPRPRPIAHPRP | -0.171
58 | RRIRGRPPRLPRPRPRPSERPRP | 0.278
59 | RRIRNRPPRLPRPRPRPTSRPRP | -0.129
60 | RRIRKRPPRLPRPRPRPMTFPRP | -0.00803
61 | RRIRMRPPRLPRPRPRPMVHPRP | 0.0734
62 | RRIRFRPPRLPRPRPRPVMPPRP | -0.12
63 | RRIRQRPPRLPRPRPRPTIHPRP | -0.32
64 | RRIRLRPPRLPRPRPRPCMEPRP | 0.115
65 | RRIRHRPPRLPRPRPRPFTQPRP | -0.0771
66 | RRIRERPPRLPRPRPRPKGVPRP | 0.723
67 | RRIRPRPPRLPRPRPRPWPKPRP | -0.0311
68 | RRIRMRPPRLPRPRPRPGNEPRP | 1.05
69 | RRIRYRPPRLPRPRPRPAKCPRP | -0.153

Row | Sequence | shrunken log2 fold change
70 | RRIRERPPRLPRPRPRPEYNPRP | -0.274
71 | RRIRVRPPRLPRPRPRPCRWPRP | 0.182
72 | RRIRFRPPRLPRPRPRPYFNPRP | -1.04
73 | RRIRTRPPRLPRPRPRPNFSPRP | 0.059
74 | RRIRIRPPRLPRPRPRPAYQPRP | -0.76
75 | RRIRPRPPRLPRPRPRPLTSPRP | -0.125
76 | RRIRNRPPRLPRPRPRPMKGPRP | -0.0787
77 | RRIRQRPPRLPRPRPRPGCEPRP | 0.0109
78 | RRIRDRPPRLPRPRPRPSWPPRP | 0.399
79 | RRIRERPPRLPRPRPRPNWRPRP | 0.194
80 | RRIRLRPPRLPRPRPRPSCEPRP | -0.0674
81 | RRIRDRPPRLPRPRPRPEGHPRP | -0.0429
82 | RRIRNRPPRLPRPRPRPPAMPRP | 0.124
83 | RRIRTRPPRLPRPRPRPNIKPRP | -0.828
84 | RRIRPRPPRLPRPRPRPAGEPRP | 0.418
85 | RRIRCRPPRLPRPRPRPPGDPRP | 0.346
86 | RRIRYRPPRLPRPRPRPGRMPRP | -0.642
87 | RRIRSRPPRLPRPRPRPNHTPRP | -0.444
88 | RRIRIRPPRLPRPRPRPIVVPRP | -0.666
89 | RRIRQRPPRLPRPRPRPLENPRP | -0.0226
90 | RRIRIRPPRLPRPRPRPEDDPRP | -0.16
91 | RRIRDRPPRLPRPRPRPVAAPRP | 0.833
